What was measured:
[1] = target: epidermal growth factor receptor (EGFR), expressed in sensor cells as fusion protein 1 (mNpu^N-EGFR) and fusion protein 2 (EGFR-Npu^C-rMTS-mCherry) (UniProt P00533)
[2] = target: epidermal growth factor receptor (EGFR), expressed in sensor cells as fusion protein 1 (mNpu^N-EGFR) and fusion protein 2 (EGFR-Npu^C-rMTS-mCherry) (UniProt P00533); remark: listed apart in the source

Substance | co-localisation (Pearson's r) of mCherry with mitochondrial stain in sensor cells treated with TGF-α (100 ng/mL) (untreated control 0.1) [1] [Pearson's r] | co-localisation (Pearson's r) of mCherry with mitochondrial stain in sensor cells treated with EGF 0.001-100 ng/mL for 1 h (untreated control 0.08) [2] [Pearson's r] | limit of detection (LOD) of EGF by the sensor cells (mCherry translocation to mitochondria) [2] [ng/mL] | co-localisation (Pearson's r) of mCherry with mitochondrial stain in EGF-treated sensor cells (agonist/antagonist screen; untreated control 0.1) [1] [Pearson's r] | co-localisation (Pearson's r) of mCherry with mitochondrial stain in sensor cells co-treated with EGF and Cetuximab (400 nM) (EGF alone 0.8) [1] [Pearson's r]
transforming growth factor-α (TGF-α) (from UniProt P01135 40-89) (ligand) | 0.8 |  |  |  | 
epidermal growth factor (EGF) (from UniProt P01133 971-1023) (ligand) |  | 0.87 | 0.1 | 0.8 | 0.1

Source: publication PMC10045995
